Assay results as given in the supplement of paper PMC11246515.
± gives the standard deviation of the averaged measurements.

Assay: total protein half-life in vivo (active degradation + dilution); higher = more stable protein
[1] = E. coli NCM3722 delta-clpP delta-lon delta-hslV, growth: N-lim chemostat, doubling time 6 h
[2] = E. coli NCM3722 delta-clpP, growth: N-lim chemostat, doubling time 6 h
[3] = E. coli NCM3722 delta-hslV, growth: N-lim chemostat, doubling time 6 h
[4] = E. coli NCM3722 delta-lon, growth: N-lim chemostat, doubling time 6 h
[5] = E. coli NCM3722 delta-smpB, growth: N-lim chemostat, doubling time 6 h
[6] = wild type E. coli NCM3722, growth: C-lim chemostat, doubling time 3 h
[7] = wild type E. coli NCM3722, growth: C-lim chemostat, doubling time 6 h
[8] = wild type E. coli NCM3722, growth: C-lim chemostat, doubling time 12 h
[9] = wild type E. coli NCM3722, growth: N-lim chemostat, doubling time 6 h
[10] = wild type E. coli NCM3722, growth: N-lim chemostat, doubling time 12 h
[11] = wild type E. coli NCM3722, growth: P-lim chemostat, doubling time 6 h
[12] = wild type E. coli NCM3722, growth: P-lim chemostat, doubling time 12 h

Sequence	total protein half-life in vivo [1]	total protein half-life in vivo [2]	total protein half-life in vivo [3]	total protein half-life in vivo [4]	total protein half-life in vivo [5]	total protein half-life in vivo [6]	total protein half-life in vivo [7]	total protein half-life in vivo [8]	total protein half-life in vivo [9]	total protein half-life in vivo [10]	total protein half-life in vivo [11]	total protein half-life in vivo [12]
MPPRRYNPDTRRDELLERINLDIPGAVAQALREDLGGTVDANNDITAKLLPENSRSHATVITRENGVFCGKRWVEEVFIQLAGDDVTIIWHVDDGDVINANQSLFELEGPSRVLLTGERTALNFVQTLSGVASKVRHYVELLEGTNTQLLDTRKTLPGLRSALKYAVLCGGGANHRLGLSDAFLIKENHIIASGSVRQAVEKASWLHPDAPVEVEVENLEELDEALKAGADIIMLDNFETEQMREAVKRTNGKALLEVSGNVTDKTLREFAETGVDFISVGALTKHVQALDLSMRFR	4.6 ± 0.47 h	5.46 ± 2.3 h	4.1 ± 0.29 h	6.13 ± 1.8 h	4.05 ± 0.33 h	2.86 ± 0.25 h	5.827 ± 0.04 h	8.46 ± 0.51 h	3.72 ± 0.12 h	7.1 ± 0.15 h	5.5 ± 0.4 h	9.73 ± 0.27 h
MKKIACLSALAAVLAFTAGTSVAATSTVTGGYAQSDAQGQMNKMGGFNLKYRYEEDNSPLGVIGSFTYTEKSRTASSGDYNKNQYYGITAGPAYRINDWASIYGVVGVGYGKFQTTEYPTYKHDTSDYGFSYGAGLQFNPMENVALDFSYEQSRIRSVDVGTWIAGVGYRF [P0A917]	7.26 ± 0.62 h	6.37 ± 0.47 h	6.51 ± 0.36 h	6.76 ± 0.59 h	5.81 ± 0.095 h	3.09 ± 0.13 h	6.04 ± 0.27 h	14.4 ± 0.89 h	6.09 ± 0.073 h	12.9 ± 1.1 h	6.15 ± 0.19 h	12.9 ± 0.62 h
MSQNVYQFIDLQRVDPPKKPLKIRKIEFVEIYEPFSEGQAKAQADRCLSCGNPYCEWKCPVHNYIPNWLKLANEGRIFEAAELSHQTNTLPEVCGRVCPQDRLCEGSCTLNDEFGAVTIGNIERYINDKAFEMGWRPDMSGVKQTGKKVAIIGAGPAGLACADVLTRNGVKAVVFDRHPEIGGLLTFGIPAFKLEKEVMTRRREIFTGMGIEFKLNTEVGRDVQLDDLLSDYDAVFLGVGTYQSMRGGLENEDADGVYAALPFLIANTKQLMGFGETRDEPFVSMEGKRVVVLGGGDTAMDCVRTSVRQGAKHVTCAYRRDEENMPGSRREVKNAREEGVEFKFNVQPLGIEVNGNGKVSGVKMVRTEMGEPDAKGRRRAEIVAGSEHIVPADAVIMAFGFRPHNMEWLAKHSVELDSQGRIIAPEGSDNAFQTSNPKIFAGGDIVRGSDLVVTAIAEGRKAADGIMNWLEV	5.1 ± 0.5 h	4.59 ± 0.21 h	4.73 ± 0.05 h	5.25 ± 0.19 h	4.63 ± 0.37 h	2.7 ± 0.04 h	4.602 ± 0.032 h	7.68 ± 0.49 h	4.9 ± 0.24 h	7.719 ± 0.058 h	4.54 ± 0.39 h	8.48 ± 0.63 h
MNKSGKYLVWTVLSVMGAFALGYIALNRGEQINALWIVVASVCIYLIAYRFYGLYIAKNVLAVDPTRMTPAVRHNDGLDYVPTDKKVLFGHHFAAIAGAGPLVGPVLAAQMGYLPGMIWLLAGVVLAGAVQDFMVLFVSTRRDGRSLGELVKEEMGPTAGVIALVACFMIMVIILAVLAMIVVKALTHSPWGTYTVAFTIPLALFMGIYLRYLRPGRIGEVSVIGLVFLIFAIISGGWVAESPTWAPYFDFTGVQLTWMLVGYGFVAAVLPVWLLLAPRDYLSTFLKIGTIVGLAVGILIMRPTLTMPALTKFVDGTGPVWTGNLFPFLFITIACGAVSGFHALISSGTTPKMLANEGQACFIGYGGMLMESFVAIMALVSACIIDPGVYFAMNSPMAVLAPAGTADVVASAAQVVSSWGFSITPDTLNQIASEVGEQSIISRAGGAPTLAVGMAYILHGALGGMMDVAFWYHFAILFEALFILTAVDAGTRAARFMLQDLLGVVSPGLKRTDSLPANLLATALCVLAWGYFLHQGVVDPLGGINTLWPLFGIANQMLAGMALMLCAVVLFKMKRQRYAWVALVPTAWLLICTLTAGWQKAFSPDAKVGFLAIANKFQAMIDSGNIPSQYTESQLAQLVFNNRLDAGLTIFFMVVVVVLALFSIKTALAALKDPKPTAKETPYEPMPENVEEIVAQAKGAH	5.72 h	4.33 h	4.49 ± 0.2 h		4.96 ± 1.1 h	3.36 ± 0.37 h	5.34 ± 0.24 h	11.7 ± 0.39 h	5.33 ± 0.76 h		5.517 ± 0.042 h	10.3 ± 0.19 h
MSKSTAEIRQAFLDFFHSKGHQVVASSSLVPHNDPTLLFTNAGMNQFKDVFLGLDKRNYSRATTSQRCVRAGGKHNDLENVGYTARHHTFFEMLGNFSFGDYFKHDAIQFAWELLTSEKWFALPKERLWVTVYESDDEAYEIWEKEVGIPRERIIRIGDNKGAPYASDNFWQMGDTGPCGPCTEIFYDHGDHIWGGPPGSPEEDGDRYIEIWNIVFMQFNRQADGTMEPLPKPSVDTGMGLERIAAVLQHVNSNYDIDLFRTLIQAVAKVTGATDLSNKSLRVIADHIRSCAFLIADGVMPSNENRGYVLRRIIRRAVRHGNMLGAKETFFYKLVGPLIDVMGSAGEDLKRQQAQVEQVLKTEEEQFARTLERGLALLDEELAKLSGDTLDGETAFRLYDTYGFPVDLTADVCRERNIKVDEAGFEAAMEEQRRRAREASGFGADYNAMIRVDSASEFKGYDHLELNGKVTALFVDGKAVDAINAGQEAVVVLDQTPFYAESGGQVGDKGELKGANFSFAVEDTQKYGQAIGHIGKLAAGSLKVGDAVQADVDEARRARIRLNHSATHLMHAALRQVLGTHVSQKGSLVNDKVLRFDFSHNEAMKPEEIRAVEDLVNTQIRRNLPIETNIMDLEAAKAKGAMALFGEKYDERVRVLSMGDFSTELCGGTHASRTGDIGLFRIISESGTAAGVRRIEAVTGEGAIATVHADSDRLSEVAHLLKGDSNNLADKVRSVLERTRQLEKELQQLKEQAAAQESANLSSKAIDVNGVKLLVSELSGVEPKMLRTMVDDLKNQLGSTIIVLATVVEGKVSLIAGVSKDVTDRVKAGELIGMVAQQVGGKGGGRPDMAQAGGTDAAALPAALASVKGWVSAKLQ	5.338 ± 0.0061 h	5.33 ± 0.19 h	5.65 ± 0.48 h	5.67 ± 0.09 h	5.06 ± 0.068 h	3.04 ± 0.14 h	6.01 ± 0.44 h	11 ± 0.2 h	5.11 ± 0.11 h	9.15 ± 0.27 h	6.2 ± 0.075 h	11.9 ± 0.62 h
